Experiments:
Cyno NKG2D-mFc = molecular target: T1, Cyno NKG2D-mFc (cynomolgus monkey, UniProt P61252 78-216, limits assumed); test: SPR, NKG2D-mFc captured, 37C, pH 6.0
T1 construct: also called cynomolgus NKG2D fused to a mouse Fc
T1 sequence (looked up): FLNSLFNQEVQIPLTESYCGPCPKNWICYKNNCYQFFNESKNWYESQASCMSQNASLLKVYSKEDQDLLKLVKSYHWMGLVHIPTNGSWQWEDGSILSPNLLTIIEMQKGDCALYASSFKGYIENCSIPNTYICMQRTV
Procedure: (§1) Binding to NKG2D was assessed by SPR using a mouse Fc capture kit (Cytiva, #BR100838) immobilized onto a CM5 chip. Human and cynomolgus NKG2D fused to a mouse Fc were captured and AB0411, AB0466, or AB0621 was titrated from 600 nM.

[1] = molecular target: T2, soluble mouse Fc-human NKG2D dimer (human, UniProt P26718 78-216, limits assumed); test: SPR, NKG2D-mFc captured, 37C, pH 6.0
T2 construct: also called NKG2D-mFc; human NKG2D fused to a mouse Fc
T2 sequence (looked up): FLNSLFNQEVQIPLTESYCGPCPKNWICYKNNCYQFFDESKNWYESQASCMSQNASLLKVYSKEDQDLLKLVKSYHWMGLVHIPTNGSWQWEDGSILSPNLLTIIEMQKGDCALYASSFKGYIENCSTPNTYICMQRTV
Procedure: as §1

human CEACAM5 on cells = molecular target: T3, human CEACAM5 on cells (human, UniProt P06731 35-685); test: flow cytometry, MKN-45 cells
T3 construct: tumour cell lines with endogenous CEACAM5, or B16F10 engineered to express hCEACAM5; also called CEACAM5 on MKN-45, HPAF-II, SK-CO-1, LoVo, BxPC-3, Kato-III, LS-174T, ZR-75-30; hCEACAM5-B16F10
T3 sequence: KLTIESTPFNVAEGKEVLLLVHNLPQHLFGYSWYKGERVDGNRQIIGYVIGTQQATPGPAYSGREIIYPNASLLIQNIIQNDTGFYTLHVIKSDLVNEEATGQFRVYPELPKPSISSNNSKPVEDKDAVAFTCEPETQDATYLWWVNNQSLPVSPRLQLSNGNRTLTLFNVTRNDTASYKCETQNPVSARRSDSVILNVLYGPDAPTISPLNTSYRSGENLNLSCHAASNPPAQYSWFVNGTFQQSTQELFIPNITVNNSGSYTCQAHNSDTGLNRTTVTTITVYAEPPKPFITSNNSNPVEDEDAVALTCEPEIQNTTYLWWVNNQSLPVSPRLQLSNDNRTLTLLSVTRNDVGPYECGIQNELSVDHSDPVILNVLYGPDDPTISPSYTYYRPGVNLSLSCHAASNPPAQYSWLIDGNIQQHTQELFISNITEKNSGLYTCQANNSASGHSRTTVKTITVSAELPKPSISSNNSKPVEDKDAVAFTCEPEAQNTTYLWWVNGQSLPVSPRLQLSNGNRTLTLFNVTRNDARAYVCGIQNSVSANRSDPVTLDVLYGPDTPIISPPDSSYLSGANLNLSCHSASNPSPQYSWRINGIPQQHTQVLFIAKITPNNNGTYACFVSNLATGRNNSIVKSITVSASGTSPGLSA
Procedure: MKN-45 and HPAF-II human cancer cell lines were diluted into FACS buffer and 100,000 cells of each cell type were seeded per well in duplicate into 96-well plates for FACS staining. The cells were washed with PBS, incubated in a 1:2000 dilution of live/dead dye in PBS for 15 minutes, and then washed with FACS buffer. AB0264, AB0411, AB0466, and AB0621 were diluted into FACS buffer, and 50 μl of each diluted TriNKET was added to the cells. After incubation on ice for 30-120 minutes, the cells were washed with FACS buffer. Anti-human IgG-Fc secondary antibody was diluted into FACS buffer, and 50 μl was added per well for detection of the bound TriNKETs. The cells were incubated for 30-60 minutes on ice and then washed with FACS buffer. 50 μl of fixation buffer was added to each well and the cells were incubated for 10 minutes at room temperature. The cells were washed with FACS buffer and resuspended in FACS buffer for analysis with ThermoFisher Attune NxT, BD FACS Celesta SN #H66034400085, or BD FACS Celesta SN #H66034400160.

Human CEACAM5 (E398) = molecular target: T4, Human CEACAM5 (E398) (human, UniProt P06731 35-685, limits assumed); test: SPR, anti-hFc capture, 37C, pH 7.4
T4 construct: also called hCEACAM5
T4 sequence: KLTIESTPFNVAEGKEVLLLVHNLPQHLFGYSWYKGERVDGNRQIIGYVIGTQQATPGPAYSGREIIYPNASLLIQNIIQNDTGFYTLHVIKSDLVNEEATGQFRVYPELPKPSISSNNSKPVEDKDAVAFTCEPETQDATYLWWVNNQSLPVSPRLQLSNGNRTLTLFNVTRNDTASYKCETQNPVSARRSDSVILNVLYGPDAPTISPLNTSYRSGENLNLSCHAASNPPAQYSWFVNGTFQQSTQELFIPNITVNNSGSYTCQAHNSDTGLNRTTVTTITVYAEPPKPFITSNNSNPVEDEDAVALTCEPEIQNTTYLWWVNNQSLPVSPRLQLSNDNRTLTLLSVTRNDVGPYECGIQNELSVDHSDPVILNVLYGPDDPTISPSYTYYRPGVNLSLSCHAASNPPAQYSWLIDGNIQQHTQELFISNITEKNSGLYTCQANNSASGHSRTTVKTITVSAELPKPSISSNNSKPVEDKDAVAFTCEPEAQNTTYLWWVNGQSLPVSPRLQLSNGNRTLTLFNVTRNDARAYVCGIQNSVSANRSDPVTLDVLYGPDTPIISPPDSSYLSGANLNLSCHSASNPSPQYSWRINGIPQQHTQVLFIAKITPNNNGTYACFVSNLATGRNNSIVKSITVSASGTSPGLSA
Procedure: (§2) To determine the affinity and cross-reactivity of CEACAM5 TriNKET molecules, AB0411, AB0466, or AB0621 TriNKETs were captured using an anti-human Fc capture antibody (Cytiva, #BR100839) immobilized onto a Biacore CM5 standard surface sensor chip following manufacturer instructions. Human or cynomolgus CEACAM5 were titrated over captured AB0411, AB0466, and AB0621 as 2-fold serial dilutions starting from 300 nM. Association was monitored for 300 sec and dissociation was monitored for 600 sec. The assay was run at 37° C. at pH 7.4 and 6.0. The surface of the CM5 chip was regenerated with 10 mM glycine pH 1.5 for 20 sec at 100 μL/min.

Human CEACAM6 = molecular target: T5, Human CEACAM6 (human, UniProt P40199 35-320, limits assumed); test: SPR, 37C, pH 7.4
T5 sequence (looked up): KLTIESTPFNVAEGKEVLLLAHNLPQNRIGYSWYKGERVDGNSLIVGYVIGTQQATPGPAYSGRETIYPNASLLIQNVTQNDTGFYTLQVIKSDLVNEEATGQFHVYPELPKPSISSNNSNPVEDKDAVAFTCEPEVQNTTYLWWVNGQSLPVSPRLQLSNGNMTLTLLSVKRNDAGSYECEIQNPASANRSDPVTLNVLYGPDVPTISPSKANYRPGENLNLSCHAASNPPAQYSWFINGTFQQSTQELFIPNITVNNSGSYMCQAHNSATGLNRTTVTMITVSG
Procedure: as §2
Binding to human and cynomolgus CEACAM1, 6, and 8 was assessed by SPR using the same protocol as for CEACAM5 but using up to 600 and 1200 nM for titration of each protein. There were no detectable binding signals at these concentrations for AB0621. In contrast, reproducible weak binding signals were detected for AB0411 and AB0466, but these two TriNKETs also bound to different epitope(s) on the N-terminus of CEACAM5. Typical weak binding sensorgrams for AB0411 and AB0466 against human CEACAM1 and 6 indicated weak but notable signals compared to AB0621. […]

Kd (Cyno NKG2D-mFc): 300 nM
koff (Cyno NKG2D-mFc): 0.045 s⁻¹
kon (Cyno NKG2D-mFc): 150000 M⁻¹ s⁻¹
Kd [1]: 240 nM
koff [1]: 0.056 s⁻¹
kon [1]: 240000 M⁻¹ s⁻¹
EC50 (human CEACAM5 on cells): 20.6 nM
Max FOB (human CEACAM5 on cells): 51.3 fold over background
Kd (Human CEACAM5 (E398)): 17 nM
kon (Human CEACAM5 (E398)): 100000 M⁻¹ s⁻¹
B1: AB0621 F3' CEACAM5 TriNKET (bispecific antibody, human IgG1, kappa)
chain: DIVMTQSPDSLAVSLGERATINCKSSHSLLYGNFQNNYLAWYQQKPGQPPKLLIYWASTRESGVPDRFSGSGSGTDFTLTISSLQAEDVAVYYCQQYYSYPYTFGCGTKLEIKGGGGSGGGGSGGGGSGGGGSQVQLVQSGAEVKKPGASVKVSCKASGYTFTAYTIHWVRQAPGQCLEWMGYINPSSGYTEYNQKFKDRTTLTADTSISTAYMELSRLRSDDTAVYYCTREGGLLWFDYWGQGTLVTVSSGSDKTHTCPPCPAPELLGGPSVFLFPPKPKDTLMISRTPEVTCVVVDVSHEDPEVKFNWYVDGVEVHNAKTKPREEQYNSTYRVVSVLTVLHQDWLNGKEYKCKVSNKALPAPIEKTISKAKGQPREPRVYTLPPCRDELTKNQVSLTCLVKGFYPSDIAVEWESNGQPENNYKTTPPVLVSDGSFTLYSKLTVDKSRWQQGNVFSCSVMHEALHNHYTQKSLSLSPG
heavy: EVQLVESGGGLVKPGGSLRLSCAASGFTFSSYSMNWVRQAPGKGLEWVSSISSSSSYIYYADSVKGRFTISRDNAKNSLYLQMNSLRAEDTAVYYCARGAPIGAAAGWFDPWGQGTLVTVSSASTKGPSVFPLAPSSKSTSGGTAALGCLVKDYFPEPVTVSWNSGALTSGVHTFPAVLQSSGLYSLSSVVTVPSSSLGTQTYICNVNHKPSNTKVDKKVEPKSCDKTHTCPPCPAPELLGGPSVFLFPPKPKDTLMISRTPEVTCVVVDVSHEDPEVKFNWYVDGVEVHNAKTKPREEQYNSTYRVVSVLTVLHQDWLNGKEYKCKVSNKALPAPIEKTISKAKGQPREPQVCTLPPSRDELTENQVSLTCLVKGFYPSDIAVEWESNGQPENNYKTTPPVLDSDGSFFLYSWLTVDKSRWQQGNVFSCSVMHEALHNHYTQKSLSLSPG
light: DIQMTQSPSSVSASVGDRVTITCRASQGISSWLAWYQQKPGKAPKLLIYAASSLQSGVPSRFSGSGSGTDFTLTISSLQPEDFATYYCQQGVSFPRTFGGGTKVEIKRTVAAPSVFIFPPSDEQLKSGTASVVCLLNNFYPREAKVQWKVDNALQSGNSQESVTEQDSKDSTYSLSSTLTLSKADYEKHKVYACEVTHQGLSSPVTKSFNRGEC
binding result (Human CEACAM6): no binding (tested: up to 600 and 1200 nM)
